Test results reported in PMC2894445.

How the values were obtained:
[1] = target: Nup205 (Xenopus laevis (endogenous in Xenopus egg cytosol)); test: co-IP
[2] = target: Nup188 (Xenopus laevis (endogenous in Xenopus egg cytosol)); test: co-IP

B1: Nup93 (natural protein)
chain: MDGEGFGELLQQAEQLAAETEGVTELPHVERNLQEIQQAGERLRSKTMTRTSQESANVKASVLLGSRGLDISHISQRLESLSAATTFEPLEPVKDTDIQGFLKNEKDNALLSAIEESRKRTFVMAEEYHRESMLVEWEQVKQRVLHTLLASGEDALDFTQESETSYISESGAPGRSSLDNVEMAYARQMYMYNEKVVSGHLQPSLVDLCTEAAERLDDKNVSDLWVMVKQMTDVPLIPASDTLKSRCSGQMQMAFVRQALNYLEQSYKNYTLISVFANLQQAQLGGVPGTYNLVRSFLNIRLPTPIPGLQDGEIEGYPVWALIYYCMRCGDLMAAQQVVNRAQHQLGDFKNCFQEYIHNKDRRLSPTTENKLRLHYRRAVRASTDPYKRAVYCIIGRCDVSDNHSEVADKTEDYLWLKLSQVCFEDEANSSPQDRLTLPQFQKQLFEDYGESHFAVNQQPYLYFQVLFLTAQFEAAIAFLFRLERTRCHAVHVALALFELKLLLKSTGQSAQLLSQEPGEPQGVRRLNFIRLLMLYTRKFEPTDPREALQYFYFLRNEKDNQGESMFLRCVSELVIESREFDMLLGKLEKDGSRKPGAIDKFTRDTKTIINKVASVAENKGLFEEAAKLYDLAKNPDKVLELTNKLLSPVVSQISAPQSNRERLKNMALAIAERYKSQGVSAEKSINSTFYLLLDLITFFDEYHAGHIDLSFDVIERLKLVPLSQDSVEERVAAFRNFSDEIRHNLSEILLATMNILFTQYKRLKGSGPTTLGRPQRVQEDKDSVLRSQARALITFAGMIPYRMSGDTNARLVQMEVLMN
Question: What does the source list for B1?
Answer: percent of Nup93 co-immunoprecipitated [1]: 45%; percent of Nup93 co-immunoprecipitated [2]: 45%
